The text below walks through data of paper doi:10.1101/2022.12.23.521728 (bioRxiv, 2022).

This test addresses ATP synthase F1 α subunit of G. stearothermophilus FoF1 (G. stearothermophilus, UniProt P09219 1-502). Nature of the test: cryo-EM structure.

Sequence of ATP synthase F1 α subunit of G. stearothermophilus FoF1 (P09219 whole entry): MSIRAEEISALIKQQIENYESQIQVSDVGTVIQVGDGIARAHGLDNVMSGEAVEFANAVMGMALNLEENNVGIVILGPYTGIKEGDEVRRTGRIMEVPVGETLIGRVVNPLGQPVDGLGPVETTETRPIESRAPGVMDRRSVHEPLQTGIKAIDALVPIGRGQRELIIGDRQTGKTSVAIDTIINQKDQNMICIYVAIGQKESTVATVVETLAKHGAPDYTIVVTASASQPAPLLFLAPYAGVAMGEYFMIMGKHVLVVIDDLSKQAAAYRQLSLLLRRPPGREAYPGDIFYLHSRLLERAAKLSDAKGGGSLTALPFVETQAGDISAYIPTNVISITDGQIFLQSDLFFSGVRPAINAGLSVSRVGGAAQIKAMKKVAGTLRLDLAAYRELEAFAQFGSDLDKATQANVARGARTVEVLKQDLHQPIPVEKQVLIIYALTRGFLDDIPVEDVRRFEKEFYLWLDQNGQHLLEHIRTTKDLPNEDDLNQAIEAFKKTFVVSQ

B1: ATP synthase F1 γ subunit of G. stearothermophilus FoF1 (natural protein)
chain: ASLRDIKTRINATKKTSQITKAMEMVLTSKLNRAEKREIVRPYMEKIQEVVANVALAARASHPMLVSRPVKKTGYLVITSDRGLAGAYNSNVLRLVYQTIQKRHASPDEYAIIVIGRVGLSFFRKRNMPVILDITRLPDQPSFADIKEIARKTVGLFADGTFDELYMYYNHYVSAIQQEVTERKLLPLTDLAENKQRTVYEFEPSQEEILDVLLPQYAESLIYGALLDAKASEHAARMTAMKNATDNANELIRTLTLSYNRARQAAITQEITEIVAGANALQ
For the molecule B1, the binding result is reported as “binds”.
